Data from patent US7223734B2, “Plasma protein-binding ligands” (The American National Red Cross, priority 2002, dated 2007).
Non-standard residues stand in square brackets, D forms with d. No end group written: not given here.

Assays:
API [1] = biological target: T1, API (Homo sapiens, UniProt P01009); test: Purification of API from F1-Apo-depleted plasma on AKVSKG column (Example 7); assay type: binding
T1 construct: from tissue; host or cells: human plasma (whole, fibrinogen-depleted or F1-Apo-depleted)
Experimental: (§1) Conditions that prevented the binding of albumin from F1-Apo depleted plasma were identified. The capture of albumin by AKVSKG (SEQ ID NO: 45) and D-WWLHIN (SEQ ID NO: 33) can be prevented in the presence of 50 mM caproic acid or 1.0–2.2 M NaCl, respectively. An example for API purification with AKVSKG (SEQ ID NO: 45) is provided. F1-Apo-depleted plasma (10.7 ml) containing 50 mM caproic acid, was applied at 0.4 ml/min (LV=30 cm/h; RT=5.1) onto a 2.0 ml column (CF=0.785 cm^2) that had been equilibrated with 0.14 M NaCl, 0.020 M sodium citrate, pH 7.0 (EQ buffer). After the column was washed with 19 CVs of EQ buffer to baseline, API protein was eluted with 2.0 M NaCl, 0.020 M sodium citrate, pH 6.0. The column was regenerated with 2.0 M guanidine-HCl, 2% Sarkosyl and 2% acetic acid and stored in 20% methanol.

albumin [2] = biological target: T2, albumin (Homo sapiens, UniProt P02768); test: Albumin in AKVSKG / D-WWLHIN evaluation (Example 7); assay type: binding; details: for binding of albumin in plasma: initial evaluation
T2 construct: from tissue; host or cells: human plasma (fibrinogen-depleted or F1-Apo-depleted)
Experimental: as §1

API [3] = biological target: T1, API; test: Primary screening of 6-mer library for API-binding ligands; details: bead screening, immunodetection / radiolabel
Experimental: Peptide libraries attached to Toyopearl-AF Amino 650M resin or Tentagel resin were evaluated with 14C-labeled fibrinogen and API. All steps were performed at room temperature. Specifically, 20 mg of Toyopearl resin beads or 40 mg of Tentagel resin beads were suspended in 20% methanol for a minimum of 2 hours in 15 ml conical polypropylene tubes (Corning). After rinsing with distilled water, the resin beads were equilibrated in 0.15 M NaCl, 0.020 M sodium citrate, pH 7.3. The resin beads were then blocked for 2 hours with 1% casein (Sigma) in 0.15M NaCl, 0.020M sodium citrate, pH 7.3. Following blocking, the resin beads were centrifuged and the supernatant removed. A solution containing 1 mM of C^14-labeled fibrinogen or 30 μM of C^14-labeled API was applied to the resin beads in the blocking solution in the presence of 0.1% Tween-20 (Sigma). The materials were incubated for 2 hours. The resin beads were washed with 0.15 M NaCl, 0.020 M sodium citrate, 0.05% Tween-20, pH 7.3, in a batch method (fibrinogen ligands) or in disposable BioRad 10 ml columns (API ligands) until radiation counts reached the background level of less than 40 DPM. The resin beads were divided into separate tubes to obtain approximately 5–10 mg of resin beads per sheet. This was accomplished by mixing each aliquot of resin beads with 20–22 ml of 1% low melting agarose solution (Sigma) at less than 40° C., and rapidly pouring the mixture onto GelBond® film sheets (BMA Cat. No. 53749, 16×18 cm; Cat. No. 53759, 12.5×24.5 cm). Spreading of the resin beads to the edge of the gel sheets was prevented by creating frames (about 23 cm×about 10 cm or about 15 cm×about 15 cm) with several layers of masking tape. About 20–22 ml of resin bead-agarose mixture was plated on each GelBond sheet. Special care was taken to spread the beads in an even monolayer to facilitate identification and isolation of individual “hot” beads. The agarose gel was then air-dried overnight and placed, bead side down, on X-ray film (Kodak Biomax MR). The agarose and autoradiography film were exposed for 4–14 days followed by a second exposure of 7 days in an about 20 cm×about 25 cm stainless steel cassette. Afterwards, the films were taped together and marked with several staple holes to ensure proper alignment of beads in agarose to film. After the films were developed, the positive beads that appeared on both films were identified under the microscope and picked by aligning the developed film(s) and agarose gel via the staple holes. Beads to be sequenced were carefully picked by cutting a square trench around the bead with a scalpel, and hydrating this area with distilled water. […]

Apo-A1 lipoprotein = biological target: T3, Apo-A1 lipoprotein (Homo sapiens, UniProt P02647); test: Apo-A1 lipoprotein purification from fibrinogen-depleted plasma on peptide resin column (Example 4); assay type: binding
T3 construct: from tissue; host or cells: human plasma (whole or fibrinogen-depleted)
Experimental: Apo-A1 lipoprotein purification was accomplished with D-WWLHIN (SEQ ID NO: 33) peptides and several analogs. Indeed, about 100% Apo-A1 lipoprotein depletion from plasma was repeatedly obtained with D-WWLHAN (SEQ ID NO: 56) and D-WWLHIN (SEQ ID NO: […]). Fourteen milliliters of fibrinogen-depleted plasma was loaded onto a 2.3 ml column (CF=0.785 cm^2) at 0.4 ml/min. (LV=30 cm/H; RT=5.8) that had been equilibrated with 0.14 M NaCl, 0.020 M sodium citrate, pH 7.0 (EQ buffer). After the column was washed with EQ buffer to baseline, Apo-A1 lipoprotein was eluted with 2.0 M NaCl, 1% Tween-20, 0.020M sodium citrate, pH 7.0. The column was regenerated with 2.0 M guanidine-HCl, 2% Sarkosyl, and 2% acetic acid and stored in 20% methanol.

API [4] = biological target: T1, API; test: Purification of API from F1-Apo-depleted plasma on HFVAPH column (Example 6); assay type: binding
Experimental: (§2) Fibrinogen and Apo-A1 lipoprotein-depleted plasma (prepared in Example 5) was loaded at a linear velocity of 30 cm/hour (0.4 ml/min; RT=5.1) onto 2.0 ml column (CF=0.785 cm^2) that had been equilibrated with 0.14 M NaCl, 0.020 M sodium citrate, pH 7.0 (EQ buffer). After the column was washed with EQ buffer and 2.0 M NaCl, 0.020 M sodium citrate, pH 6.0, to baseline, the API protein was eluted with 2.0 M NaCl, 1% Tween 20, 0.020 M sodium citrate, pH 6.0. The column was regenerated with 2.0 M guanidine-HCl, 2% Sarkosyl and 2% acetic acid and stored in 20% methanol. SDS-PAGE analysis of in-process samples (reduced and non-reduced samples) was performed using a Novex 8–16% gradient gel. Not all of the API was quantitatively eluted, but could be eluted using 2M guanidine. Purification of API protein to approximately 70% purity was accomplished with ligand HFVAPH (SEQ ID NO: 46) (isolated from an L-Library).

albumin [5] = biological target: T2, albumin; test: Albumin in HFVAPH column run (Example 6); assay type: binding
Experimental: as §2

[6] = Elution Pool (without dialysis)

T1 sequence (P01009 25-418): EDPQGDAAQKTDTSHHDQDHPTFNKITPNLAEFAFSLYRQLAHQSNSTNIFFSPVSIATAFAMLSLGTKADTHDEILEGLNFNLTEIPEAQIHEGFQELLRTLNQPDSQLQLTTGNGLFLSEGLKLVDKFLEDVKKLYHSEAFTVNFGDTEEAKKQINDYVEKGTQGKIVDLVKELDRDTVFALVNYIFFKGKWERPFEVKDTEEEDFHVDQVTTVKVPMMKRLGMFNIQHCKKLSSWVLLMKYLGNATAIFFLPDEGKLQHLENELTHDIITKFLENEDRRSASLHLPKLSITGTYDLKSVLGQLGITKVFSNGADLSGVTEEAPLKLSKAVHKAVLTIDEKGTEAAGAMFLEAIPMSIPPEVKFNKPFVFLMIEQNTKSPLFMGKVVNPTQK
T3 sequence (P02647 25-267 limits assumed): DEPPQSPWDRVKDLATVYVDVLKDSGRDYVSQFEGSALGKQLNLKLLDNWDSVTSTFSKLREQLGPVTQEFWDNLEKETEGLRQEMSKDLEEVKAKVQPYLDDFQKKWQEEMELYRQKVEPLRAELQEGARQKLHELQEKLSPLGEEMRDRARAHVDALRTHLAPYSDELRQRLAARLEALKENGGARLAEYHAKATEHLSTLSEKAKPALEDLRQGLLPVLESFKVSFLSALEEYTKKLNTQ

AKVSKG ([dA]KVSKG; not fully specified (residues 2, 3, 4, 5))
captured API protein recovered (API [1]; 2.0 M NaCl elution pool, nephelometric analysis): 71%
API (API [1]; Elution (1% Tween)): 0.05 mg/mL
Total API (API [1]; Elution (1% Tween)): 0.5 mg
API (API [1]; Elution (2 M NaCl)): 0.76 mg/mL
Total API (API [1]; Elution (2 M NaCl)): 7.6 mg
Total API (API [1]; Flow through + Post Wash, load 12.7 mg): 2.0 mg
API (API [1]; Flow through + Post Wash, plasma load 10.7 ml, 1.19 mg/ml, 50 mM caproic acid): 0.07 mg/mL
API (API [1]; Wash (0.3 M NaCl)): 0.11 mg/mL
Total API (API [1]; Wash (0.3 M NaCl)): 1.3 mg
API (API [1]; Wash, first 2.0 ml fraction): 0.06 mg/mL
Total API (API [1]; Wash, first 2.0 ml fraction): 0.1 mg
API (API [1]; Wash, second 2.0 ml fraction): <0.04 mg/mL
purity of the API eluate (API [1]; densitometric analysis): 85%
Albumin (albumin [2]; Elution (1% Tween)): <0.02 mg/mL
Albumin (albumin [2]; Flow through + Post Wash, nephelometric determination, load 20 mg/ml): 7.8 mg/mL
Albumin (albumin [2]; Wash (0.3 M NaCl)): 0.63 mg/mL
Albumin (albumin [2]; Wash, first 2.0 ml fraction): 0.14 mg/mL
Albumin (albumin [2]; Wash, second 2.0 ml fraction): 0.06 mg/mL
capture of albumin from F1-Apo depleted plasma (albumin [2]; in the presence of 50 mM caproic acid): prevented
binding of albumin in plasma (albumin [2]): binds albumin in addition to API protein
identified as API-binding peptide ligand from the 6-mer library (API [3]): API-binding

WWLHIN ([dW]WLHIN; not fully specified (residues 2, 3, 4, 5, 6)) [D-WWLHIN]
Apo-A1 lipoprotein depletion from plasma (Apo-A1 lipoprotein): about 100%
capture of albumin from F1-Apo depleted plasma (albumin [2]; in the presence of 1.0–2.2 M NaCl): prevented
binding of albumin in plasma (albumin [2]): binds albumin in addition to API protein
identified as API-binding peptide ligand from the 6-mer library (API [3]): API-binding

HFVAPH
purity of purified API protein (API [4]): approximately 70%
API (API [4]; 2 M Guanidine #23): 0.1 mg/mL
Total API (API [4]; 2 M Guanidine #23): 0.4 mg
Total API (API [4]; Elution Pool (with dialysis)): 1.2 mg
API (API [4]; Elution Pool (with dialysis), 2.0 M NaCl, 1% Tween 20): 0.15 mg/mL
Total API (API [4]; [6]): 1.68 mg
API (API [4]; Elution Pool (without dialysis), 2.0 M NaCl, 1% Tween 20): 0.21 mg/mL
Total API (API [4]; Flow through, load 7.03 mg): 3.36 mg
API (API [4]; Flow through, load 9.5 ml, 0.74 mg/ml): 0.21 mg/mL
API (API [4]; Postwash): <0.04 mg/mL
Albumin (albumin [5]; 2 M Guanidine #23): <0.02 mg/mL
Albumin (albumin [5]; Elution Pool (with dialysis)): <0.02 mg/mL
Albumin (albumin [5]; [6]): <0.02 mg/mL
Albumin (albumin [5]; Flow through, load 22.6 mg/ml): 12.6 mg/mL
Albumin (albumin [5]; Postwash): 0.93 mg/mL
albumin binding from plasma (albumin [5]; in the presence of sodium citrate): does not bind albumin
identified as API-binding peptide ligand from the 6-mer library (API [3]): API-binding
